Assay results from paper PMC3438949.

Target: tapasin-ERp57 heterodimer, endogenous (human (endogenous in human cell lines)) (UniProt O15533)
Assay: co-IP

UniProt O15533, sequence (O15533 21-448, chain 1 of 2): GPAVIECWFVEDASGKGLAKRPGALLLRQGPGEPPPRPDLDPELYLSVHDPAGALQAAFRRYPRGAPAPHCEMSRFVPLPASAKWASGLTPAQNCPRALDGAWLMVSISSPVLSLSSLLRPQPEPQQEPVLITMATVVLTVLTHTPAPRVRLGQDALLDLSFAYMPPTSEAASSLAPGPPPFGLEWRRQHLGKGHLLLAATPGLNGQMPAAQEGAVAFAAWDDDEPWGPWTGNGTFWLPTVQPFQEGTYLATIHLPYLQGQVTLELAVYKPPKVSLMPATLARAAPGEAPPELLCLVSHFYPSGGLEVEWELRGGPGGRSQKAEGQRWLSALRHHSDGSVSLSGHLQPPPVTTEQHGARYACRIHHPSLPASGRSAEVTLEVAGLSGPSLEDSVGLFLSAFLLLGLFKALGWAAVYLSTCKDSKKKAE
UniProt O15533, sequence (P30101 25-505, chain 2 of 2, further chain): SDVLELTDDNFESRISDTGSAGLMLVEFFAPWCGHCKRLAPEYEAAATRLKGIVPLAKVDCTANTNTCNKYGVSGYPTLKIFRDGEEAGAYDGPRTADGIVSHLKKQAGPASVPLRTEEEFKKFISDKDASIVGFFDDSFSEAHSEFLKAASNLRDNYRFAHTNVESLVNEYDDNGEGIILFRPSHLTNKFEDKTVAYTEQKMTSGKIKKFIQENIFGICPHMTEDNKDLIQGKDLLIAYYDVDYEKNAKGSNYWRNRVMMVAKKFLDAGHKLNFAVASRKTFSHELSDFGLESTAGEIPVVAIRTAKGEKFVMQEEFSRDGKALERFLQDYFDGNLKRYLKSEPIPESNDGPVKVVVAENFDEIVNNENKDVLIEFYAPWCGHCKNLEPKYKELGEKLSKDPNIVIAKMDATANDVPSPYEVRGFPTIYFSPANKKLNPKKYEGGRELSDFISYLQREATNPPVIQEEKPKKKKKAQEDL

## CFP-tagged HLA-A2 (from UniProt P61769 21-119) (complex)
  percent of HLA-A2-CFP precipitated by PaSta1 alone (HeLaM.A2-CFP cells): 20%

## HLA-C4, endogenous in C1R cells (from UniProt P61769 21-119) (complex)
  percent of PLC-associated HLA-C4 precipitated by PaSta1 alone (C1R.A2-His cells): 60%

## endogenous MHC I of HeLaM cells (HLA-A6802, -B1503 and -C1203) (from UniProt P61769 21-119) (complex)
  percent of endogenous MHC I precipitated by PaSta1 alone (HeLaM.A2-CFP cells): 60%
